This is an account of results in US20170298096A1 (CANIMGUIDE THERAPEUTICS, published 2017).

No end group written: not given here. Where only a bound is given, the exact number is not on record here.

For one experiment, the target named is T1, His-tagged P3028 (human, also: His-tag, terminus and sequence not given here).
T1 construct: used in solution in the PEPSCAN (rampo) ELISA; also called PGE73; His-tag-P3028; not shown: His tag
T1 peptide: VFDEFKPLVEEPQNLIK
The experiment can be described thus: PEPSCAN ELISA (rampo). (In general: An ELISA detects its analyte on a solid surface through an enzyme-linked reagent.)
Take VKLSLFTER [SEQ ID NO 52]: the binding result is recorded as “binds”.

As to LDTFFVKLSLFTER [SEQ ID NO 47], the binding result was “binds”.

With KLSLFTER [SEQ ID NO 53], the binding result is reported as “binds”. The same measure, in the same setting: in the case of KKLTFFVKLSLFTER [SEQ ID NO 64] it was “binds”; in that of TFFVKLSLFTER [SEQ ID NO 49], “binds”. Same read-out and setting: in the case of DTFFVKLSLFTER [SEQ ID NO 48] it was “binds”. Regarding KKLDTFFVKLSLFTE [SEQ ID NO 34], the binding result is recorded as “binds”. Consider KKLDTFFVKLSFTER [SEQ ID NO 68], for which the binding result was “binds”. On the same count and under the same terms, the same measure for FVKLSLFTER [SEQ ID NO 51]: “binds”; for FFVKLSLFTER [SEQ ID NO 50]: “binds”.

In the case of KKLDTFFVKLSLWTER [SEQ ID NO 375], the “rampo score relative to the P28R control sample” value is ≥ 98 % of P28R control. In the case of KKLDTFFVKLSLFPER [SEQ ID NO 383], the “rampo score relative to the P28R control sample” value was ≥ 98 % of P28R control. The same measure, in the same setting: in the case of KKLDTFFVKLSLFLER [SEQ ID NO 380] it was ≥ 98 % of P28R control.

For the molecule KKLDTFFVKLSLFGER [SEQ ID NO 377], the “rampo score relative to the P28R control sample” value was ≥ 98 % of P28R control. Still for that read-out and setting: the same measure for KKLDTFFVKLSLFTEF [SEQ ID NO 388]: ≥ 98 % of P28R control; for KKLDTFFVKLSLFWER [SEQ ID NO 386]: ≥ 98 % of P28R control; for KKLDTFFVKLSLFHER [SEQ ID NO 378]: ≥ 98 % of P28R control. The same measure, in the same setting: the same measure for KKLDTFFVKLSLFSER [SEQ ID NO 384]: ≥ 98 % of P28R control; for KKLDTFFVKLSLFIER [SEQ ID NO 379]: ≥ 98 % of P28R control; for KKLDTFFVKLSLFNER [SEQ ID NO 382]: ≥ 98 % of P28R control. On the same count and under the same terms, the same measure for KKLDTFFVKLSLFTDR [SEQ ID NO 387]: ≥ 98 % of P28R control; for KKLDTFFVKLSLFTEY [SEQ ID NO 393]: ≥ 98 % of P28R control. Regarding KKLDTFFVKLSLFTEN [SEQ ID NO 390], the “rampo score relative to the P28R control sample” value was ≥ 98 % of P28R control. Regarding KKLDTFFVKLSLFTET [SEQ ID NO 392], the “rampo score relative to the P28R control sample” value is ≥ 98 % of P28R control. On to KKLDTFFVKLSLFTEK [SEQ ID NO 389], for which the “rampo score relative to the P28R control sample” value was ≥ 98 % of P28R control.

Take KKLDTFFVKLSLFFER [SEQ ID NO 376]: the “rampo score relative to the P28R control sample” value is ≥ 98 % of P28R control. Same read-out and setting: in the case of KKLDTFFVKLSLFVER [SEQ ID NO 385] it was ≥ 98 % of P28R control. Still for that read-out and setting: in the case of KKLDTFFVKLSLFMER [SEQ ID NO 381] it was ≥ 98 % of P28R control; in that of KKLDTFFVKLSLFTER [SEQ ID NO 391], ≥ 98 % of P28R control.

On to KLDTFFVKLSLFTER [SEQ ID NO 46], for which the binding result was “binds”. On to KKFFVKLSLFTER [SEQ ID NO 76], for which the binding result is on record as “binds”. Same read-out and setting: the same measure for FVKL: “binds”; for KKLDTFVKLSLFTER [SEQ ID NO 65]: “binds”. On the same count and under the same terms, in the case of KKLDTFFKLSLFTER [SEQ ID NO 66] it was “binds”.

The target in a further experiment is T2, His-tagged P3028 peptide (PGE73) (human).
T2 construct: albumin-derived peptide, in solution at 0.5 ug/mL; not shown: His-tag
T2 peptide: VFDEFKPLVEEPQNLIK
Kind of experiment: PEPSCAN ELISA, peptide on card.
On to AKLDTFFVKLSLFTER [SEQ ID NO: 268 AKLDTFFVKLSLFTER], for which the “RAMPO Score” value is 466. The same measure, in the same setting: in the case of GKLDTFFVKLSLFTER [SEQ ID NO: 271 GKLDTFFVKLSLFTER] it was 367. In the case of MKLDTFFVKLSLFTER [SEQ ID NO: 275 MKLDTFFVKLSLFTER], the “RAMPO Score” value was 457. The same measure, in the same setting: in the case of HKLDTFFVKLSLFTER [SEQ ID NO: 272 HKLDTFFVKLSLFTER] it was 428; in that of EKLDTFFVKLSLFTER [SEQ ID NO: 270 EKLDTFFVKLSLFTER], 396; in that of LKLDTFFVKLSLFTER [SEQ ID NO: 274 LKLDTFFVKLSLFTER], 449. On the same count and under the same terms, in the case of DKLDTFFVKLSLFTER [SEQ ID NO: 269 DKLDTFFVKLSLFTER] it was 373; in that of IKLDTFFVKLSLFTER [SEQ ID NO: 273 IKLDTFFVKLSLFTER], 483; in that of PKLDTFFVKLSLFTER [SEQ ID NO: 277 PKLDTFFVKLSLFTER], 387. Same read-out and setting: the same measure for QKLDTFFVKLSLFTER [SEQ ID NO: 278 QKLDTFFVKLSLFTER]: 455. For NKLDTFFVKLSLFTER [SEQ ID NO: 276 NKLDTFFVKLSLFTER], the “RAMPO Score” value turned out to be 445.

On to RKLDTFFVKLSLFTER [SEQ ID NO: 279 RKLDTFFVKLSLFTER], for which the “RAMPO Score” value is 523.
